Experimental data reported in the supplement of paper PMC9170038.

Tested on: MS2 coat protein
Assay: apparent KD of MS2 coat protein; designed switch direction (-1 OFF switch, 1 ON switch): 1; higher = weaker reporter binding
In short: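 Designed RNA switches with common flanks were made on Illumina chips by stalled E. coli RNA polymerase. Titration with SNAP-549-labelled MS2 coat protein doubled from 0.7 or 1.5 nM up to 3 µM. Apparent KD is each design's median over clusters after curve-fitting normalised fluorescence.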

[1] = input ligand: microRNA oligo, concentration not stated
[2] = Eterna round: R95, input ligand: FMN 200 uM
[3] = Eterna round: R95, input ligand: microRNA oligo, concentration not stated
[4] = Eterna round: R95, input ligand: none

GAAUAAAUGAUAGGAUAUACAUGAGGAAUUCUCGUAGAAGGAUCAUGACAUGAGGAUCACCCAUGUAACGCUCGAAAGAGCGUA [Mat - Same State NG 1 - JL mod - D41] (Eterna round: R96, puzzle: Same State NG 1)
apparent KD of MS2 coat protein (input ligand: FMN 200 uM): 607 nM
apparent KD of MS2 coat protein [1]: 733 nM
apparent KD of MS2 coat protein (input ligand: none): 928 nM

UAUUUAAUCGUAGGAUAUAGAAUGAAAUUUGUACUAGAAGGACGUUACAUGAGGAUCACCCAUGUGGUAAGUGGGACAUAGUUU [JR_SSNG1_Sub036] (Eterna round: R96, puzzle: Same State NG 1)
apparent KD of MS2 coat protein (input ligand: FMN 200 uM): 141 nM
apparent KD of MS2 coat protein [1]: 84.5 nM
apparent KD of MS2 coat protein (input ligand: none): 82.2 nM

GGAGCCGGUACUGAGGAUAUUCAUAUUAAAACAUGAGGAUCACCCAUGUAGGCCAGAAGGCCUUGGGAGAAGGCGGAUCGGCUCC [Biseusra - 2] (puzzle: Same State 2)
apparent KD of MS2 coat protein [2]: 22 nM
apparent KD of MS2 coat protein [3]: 180 nM
apparent KD of MS2 coat protein [4]: 417 nM

CUUUAUCACUAUACAUGAGGAUCACCCAUGUUAUCAUCAUGAGAGGAUAUCGUAUUUGGAUUUUUCGAGAAGGCUCUAUUGUAU [JR_SSNG3_Sub077] (Eterna round: R96, puzzle: Same State NG 3)
apparent KD of MS2 coat protein [1]: 158 nM

GUAGCAUACCGAGGAUAUUCAUAUAAUAAAUACAUGAGGAUCACCCAUGUUAGGCGAAAGCCUUGGGAGAAGGCGGAAUGCUAC [Xeonanis - 20 Mod58] (Eterna round: R96, puzzle: Same State NG 2)
apparent KD of MS2 coat protein (input ligand: FMN 200 uM): 14.4 nM
apparent KD of MS2 coat protein [1]: 35.8 nM
apparent KD of MS2 coat protein (input ligand: none): 44.8 nM

GCUCGAUGAGCGAUUUACAUGAGGAUCACCCAUGUACGUGGGCAGGAUAUUUACGUGCGGUGUGUAGAGAAGGGCCCAUCGAGC [SameState NG3 #71] (Eterna round: R96, puzzle: Same State NG 3)
apparent KD of MS2 coat protein (input ligand: FMN 200 uM): 62.5 nM
apparent KD of MS2 coat protein [1]: 206 nM
apparent KD of MS2 coat protein (input ligand: none): 332 nM

UUGCAGUCAGGUGAGGAUAUCAUGAAUUUAACAUGAGGAUCACCCAUGUGCUGCCUUGCAGCAUAUGAGAAGGCACCUGGCUGCU [JL-ss2-3.02 Brourd Mod] (puzzle: Same State 2)
apparent KD of MS2 coat protein [2]: 106 nM
apparent KD of MS2 coat protein [3]: 923 nM
apparent KD of MS2 coat protein [4]: 859 nM

GACAAUCUAUCUCAGGAUAUCAUGUCAAAGACAUGAGGAUCACCCAUGUACCAGGAAACUGGUUAUGAGAAGGGAGAUAGAUUGA [Mat - Same State 2 - Mod - D26] (puzzle: Same State 2)
apparent KD of MS2 coat protein [2]: 264 nM
apparent KD of MS2 coat protein [3]: 142 nM
apparent KD of MS2 coat protein [4]: 427 nM

AAACGGCCGAACGGAGGGCCACAUGAGGAUCACCCAUGUACAUAGGAUAUCACACCAACGAGGCGUGAGAAGGGUGAUUAAAAC [Teisedbe] (Eterna round: R96, puzzle: Same State NG 3)
apparent KD of MS2 coat protein (input ligand: FMN 200 uM): 176 nM
apparent KD of MS2 coat protein [1]: 52.1 nM
apparent KD of MS2 coat protein (input ligand: none): 1110 nM

UAGGGACAUGAGGAUCACCCAUGUGCCUCAUAUGGAGAAACACAGGAUAUGCUGAGGGAAACAUGGCAGAAGGGUGAAGAGAGG [Default title] (Eterna round: R96, puzzle: Same State NG 3)
apparent KD of MS2 coat protein (input ligand: FMN 200 uM): 31.9 nM
apparent KD of MS2 coat protein [1]: 27.3 nM
apparent KD of MS2 coat protein (input ligand: none): 50.9 nM

UUGUUUCGUCAUUAACAUGAGGAUCACCCAUGUAUCGACUCAAAGGAUAUAUAUGCUUGUUUGCAAUAGAAGGUUGAUUGUUGU [JR_SSNG3_Sub092] (Eterna round: R96, puzzle: Same State NG 3)
apparent KD of MS2 coat protein [1]: 28.1 nM

AGUCCAGCCUAAGCUGGACAAAAGCAUGUACAUGAGGAUCACCCAUGUCAUGUACAAGCUUUUUGCUCGUCUUAAAA [Mat - hsa-mir-208a - Mod of JL - D4] (puzzle: Sensor for hsa-mir-208a)
apparent KD of MS2 coat protein [2]: 684 nM
apparent KD of MS2 coat protein [3]: 16.1 nM
apparent KD of MS2 coat protein [4]: 550 nM

AAACCACAUGAGGAUCACCCAUGUGAUAAAAGCAUAGGAUAUCUGGAUGUGAGAGGCGGCAGAGAAGGAUGCACGC [Laoror] (puzzle: Same State 1)
apparent KD of MS2 coat protein [3]: 58.2 nM

AGCUAUUAAUCAGGAUAUGGUGACAUGAGGAUCACCCAUGUAUUGAUGAUUAAAUGUGGUCAAUACCAGAAGGGAUUACUAACA [SameState NG2 #51] (Eterna round: R96, puzzle: Same State NG 2)
apparent KD of MS2 coat protein (input ligand: FMN 200 uM): 44.6 nM
apparent KD of MS2 coat protein [1]: 401 nM
apparent KD of MS2 coat protein (input ligand: none): 537 nM

GCUGCACAUGAGGAUCACCCAUGUCUUCGGAGUCGAGGAUAUGGUCACUGUAAACAGUGGCCAGAAGGCGAGUAGC [SS1 - Son of Teenbexe v6] (puzzle: Same State 1)
apparent KD of MS2 coat protein [2]: 30.8 nM
apparent KD of MS2 coat protein [3]: 37.8 nM
apparent KD of MS2 coat protein [4]: 32.3 nM

GACAAUCUAUCUGAGGAUAUCAUGAAAAAAACAUGAGGAUCACCCAUGUGCAGGAAAACUGCAUAUGAGAAGGCAGAUAGAUUGC [salish99_SS2_r3_012] (puzzle: Same State 2)
apparent KD of MS2 coat protein [2]: 34.1 nM
apparent KD of MS2 coat protein [3]: 443 nM
apparent KD of MS2 coat protein [4]: 781 nM

UAUCCAUAGAUAGGAUAUCAGUAUACAUGAGGAUCACCCAUGUUAUACUUGGUUUUAAGUUAGUCUGAGAAGGAUCUUGAUGAA [SameState NG2 #4] (Eterna round: R96, puzzle: Same State NG 2)
apparent KD of MS2 coat protein (input ligand: FMN 200 uM): 12.6 nM
apparent KD of MS2 coat protein [1]: 11 nM
apparent KD of MS2 coat protein (input ligand: none): 12.9 nM

GGACGUCAACUCAACAAUUAAACAUGAGGAUCACCCAUGUCACAGGAUAUGGAUCCUAAUUGGAUCCAGAAGGGUGAGACGUCC [Fiskers NG3ss - 42] (Eterna round: R96, puzzle: Same State NG 3)
apparent KD of MS2 coat protein (input ligand: FMN 200 uM): 95.9 nM
apparent KD of MS2 coat protein [1]: 100 nM
apparent KD of MS2 coat protein (input ligand: none): 79.2 nM

UUAAAACAUGAGGAUCACCCAUGUAAUAUAAUGGGAGGAUAUCUGAUUUAAUUAAAUUUAAGAGAAGGCCUAAAUU [Mat - Same State 1 - Mod of Eli - D55] (puzzle: Same State 1)
apparent KD of MS2 coat protein [2]: 28.9 nM
apparent KD of MS2 coat protein [3]: 128 nM
apparent KD of MS2 coat protein [4]: 169 nM

UGAGCCGGCACUGAGGAUAUUCAUAUUUAAACAUGAGGAUCACCCAUGUAGGCCAGAAGGCCUUGGGAGAAGGCAGGUCGGCUCC [salish99_ss2_r3_079] (puzzle: Same State 2)
apparent KD of MS2 coat protein [2]: 25.7 nM
apparent KD of MS2 coat protein [3]: 264 nM
apparent KD of MS2 coat protein [4]: 459 nM

GCAACGUGAUUAGGAUAUGCGAAACCCAUGGAAACUACACAUGAGGAUCACCCAUGUCCAUAGCCGCAGAAGGGAUCCGGAGCA [Eternabot solution 6] (Eterna round: R96, puzzle: Same State NG 2)
apparent KD of MS2 coat protein (input ligand: FMN 200 uM): 32.1 nM
apparent KD of MS2 coat protein [1]: 90.3 nM
apparent KD of MS2 coat protein (input ligand: none): 147 nM

GCGGAACCUGACAUGAGGAUCACCCAUGUUCCGGAAACGGCACAGGAUAUCUGUCCGAAAAGGUCAGAGAAGGGUGUAAACCGC [Fiskers NG3ss - 97] (Eterna round: R96, puzzle: Same State NG 3)
apparent KD of MS2 coat protein (input ligand: FMN 200 uM): 29 nM
apparent KD of MS2 coat protein [1]: 325 nM
apparent KD of MS2 coat protein (input ligand: none): 210 nM

UACAAUCUAUCUGAGGAUAUCAUGAUCAUAACAUGAGGAUCACCCAUGUGCAGGAAAACUGCAUAUGAGAAGGCAGAUAGAUUGU [salish99_ss2_r3_073] (puzzle: Same State 2)
apparent KD of MS2 coat protein [2]: 214 nM
apparent KD of MS2 coat protein [3]: 154 nM
apparent KD of MS2 coat protein [4]: 863 nM
